# B1: CU 5-mer RNA (ssRNA)
# RNA: UCUCU
# Molecular target: PTB RRM1 (UniProt P26599 41-163)
# Experiment: ITC
# Chain of PTB RRM1 (P26599 41-163): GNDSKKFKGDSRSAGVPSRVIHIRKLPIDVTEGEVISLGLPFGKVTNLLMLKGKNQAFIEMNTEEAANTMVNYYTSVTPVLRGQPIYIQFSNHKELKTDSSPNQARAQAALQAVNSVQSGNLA
binder,measurement,value
B1,Kd,24.7 µM

# Source: publication PMC3931528
